From article PMC11332147, “Repression of Acinetobacter baumannii DNA damage response requires DdrR-assisted binding of UmuDAb dimers to atypical SOS box”
Numbering of substitutions follows the chain as printed.

Assays:
[1] = target: UmuDAb A83Y (Acinetobacter baumannii ATCC 17978 JH, UniProt A0A0D5YJU0 1-203, A83Y); assay: EMSA; Hill 4.65; legend gives 69 nM; […] (10x = 100 mM Tris, 500 mM KCl, 10 mM DTT, […]; conditions: protein: recombinant; chain copies: 2; label: 5' IRDye700 on both strands; blunt
[2] = target: T1, UmuDAb (Acinetobacter baumannii ATCC 17978 JH, UniProt A0A0D5YJU0 1-203); assay: EMSA; Hill 4.9; EMSA: LI-COR Odyssey binding buffer (10x = 100 mM Tris, 500 mM KCl, 10 mM DTT, pH 7.5), 25 mM DTT, 1 ug/uL poly(dI-dC), 200 fmol probe per 20 uL, 20 min at room temperature; 5% TBE gel run at 4 C; conditions: protein: recombinant; chain copies: 2; label: 5' IRDye700 on both strands; blunt
T1 sequence: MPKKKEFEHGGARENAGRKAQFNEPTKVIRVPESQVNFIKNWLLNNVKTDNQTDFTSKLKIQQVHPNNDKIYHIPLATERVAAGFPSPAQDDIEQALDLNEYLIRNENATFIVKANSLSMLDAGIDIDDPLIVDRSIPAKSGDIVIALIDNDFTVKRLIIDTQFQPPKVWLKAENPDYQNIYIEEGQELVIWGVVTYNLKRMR

[3] = target: UmuDAb HTH1 (Acinetobacter baumannii ATCC 17978 JH, UniProt A0A0D5YJU0 1-203, E24K); assay: EMSA; Hill 6.1; 94% bound; […] (10x = 100 mM Tris, 500 mM KCl, 10 mM DTT, […]; conditions: protein: recombinant; chain copies: 2; label: 5' IRDye700 on both strands; blunt
[4] = target: UmuDAb G124D (Acinetobacter baumannii ATCC 17978 JH, UniProt A0A0D5YJU0 1-203, G124D); assay: EMSA; Bmax < 0.90; […] (10x = 100 mM Tris, 500 mM KCl, 10 mM DTT, […]; conditions: protein: recombinant; chain copies: 2; label: 5' IRDye700 on both strands; blunt
[5] = target: UmuDAb N100D (Acinetobacter baumannii ATCC 17978 JH, UniProt A0A0D5YJU0 1-203, N100D); assay: as above; conditions: protein: recombinant; chain copies: 2; label: 5' IRDye700 on both strands; blunt
[6] = target: UmuDAb W192X (Acinetobacter baumannii ATCC 17978 JH, UniProt A0A0D5YJU0 1-191); assay: EMSA; Hill 6.1; 60-70% bound above 1 uM; […] (10x = 100 mM Tris, 500 mM KCl, 10 mM DTT, […]; conditions: protein: recombinant; chain copies: 2; label: 5' IRDye700 on both strands; blunt
[7] = target: UmuDAb HTH2 (Acinetobacter baumannii ATCC 17978 JH, UniProt A0A0D5YJU0 1-203, K40P;N41P); assay: EMSA; Hill 10.8; 78% bound; […] (10x = 100 mM Tris, 500 mM KCl, 10 mM DTT, […]; conditions: protein: recombinant; chain copies: 2; label: 5' IRDye700 on both strands; blunt
[8] = target: UmuDAb R201X (Acinetobacter baumannii ATCC 17978 JH, UniProt A0A0D5YJU0 1-200); assay: EMSA; 60-70% bound above 1 uM; […] (10x = 100 mM Tris, 500 mM KCl, 10 mM DTT, […]; conditions: protein: recombinant; chain copies: 2; label: 5' IRDye700 on both strands; blunt
[9] = target: T1, UmuDAb; assay: competition; 100x competitor; […] (10x = 100 mM Tris, 500 mM KCl, 10 mM DTT, […]; conditions: protein: recombinant; chain copies: 2; blunt
[10] = target: T1, UmuDAb; assay: competition; 100x competitor; not different from WT; […] (10x = 100 mM Tris, 500 mM KCl, 10 mM DTT, […]; conditions: protein: recombinant; chain copies: 2; blunt
[11] = target: T1, UmuDAb; assay: EMSA; no higher MW second band; […] (10x = 100 mM Tris, 500 mM KCl, 10 mM DTT, […]; conditions: protein: recombinant; chain copies: 2; blunt
[12] = target: T1, UmuDAb; assay: competition; 100x competitor; also fails vs L2-labeled probe (Fig S3); […] (10x = 100 mM Tris, 500 mM KCl, 10 mM DTT, […]; conditions: protein: recombinant, chain copies: 2, blunt

B1: WT 37 bp UmuDAb operator probe (dsDNA)
DNA 1: TCGTCAACTTGAAAATGTAACTTTTTCAAGTTACATT
DNA 2: AATGTAACTTGAAAAAGTTACATTTTCAAGTTGACGA
With B1 the Kd [1] was 70 nM, the Kd [2] was 38.9 nM and the Kd [3] was 99 nM. For the same binder, the Kd [4] was 390 nM, the Kd [5] was 306 nM and the Kd [6] was 540 nM. It also gave a Kd [7] of 114 nM and a Kd [8] of 353 nM.

B2: C3 (dsDNA)
DNA 1: B1 DNA 1 with G17T, T18C, A20G, C21A
DNA 2: B1 DNA 2 with G17T, T18C, A20G, C21A
B2: no binding [9].

B3: R2 (dsDNA)
DNA 1: B1 DNA 1 with T26C, C27T, A28G, A29G
DNA 2: B1 DNA 2 with T9C, T10C, G11A, A12G
B3: binds [10].

B4: L2 labeled probe (dsDNA)
DNA 1: B1 DNA 1 with T9C, T10C, G11A, A12G
DNA 2: B1 DNA 2 with T26C, C27T, A28G, A29G
With B4 the binding signal [11] was ~0.75 Kd ratio to WT probe.

B5: L1 (dsDNA)
DNA 1: B1 DNA 1 with C27T, A28G
DNA 2: B1 DNA 2 with T10C, G11A
B5: binds [10].

B6: R1 (dsDNA)
DNA 1: B1 DNA 1 with T10C, G11A
DNA 2: B1 DNA 2 with C27T, A28G
B6: binds [10].

B7: LR3 (dsDNA)
DNA 1: TCGTCAACCCAGAAATGTAACTTTTCTGGGTTACATT
DNA 2: AATGTAACCCAGAAAAGTTACATTTCTGGGTTGACGA
B7: no binding [9].

B8: L2C31-2 (dsDNA)
DNA 1: TCGTCAACCCAGAAATTCAACTTTTTCAAGTTACATT
DNA 2: AATGTAACTTGAAAAAGTTGAATTTCTGGGTTGACGA
B8: no binding [12].

B9: L2C34-5 (dsDNA)
DNA 1: B8 DNA 1 with T17G, C18T, A20G, C21A
DNA 2: B8 DNA 2 with G17A, G20A, A21C
B9: no binding ([12]; 2 mismatches in core as printed).
